Assay results reported in patent publication US20090220476A1 (CELLECTIS, published 2009).

T1: I-CreI Q44, A68, N70, N75, P05725
T1 chain: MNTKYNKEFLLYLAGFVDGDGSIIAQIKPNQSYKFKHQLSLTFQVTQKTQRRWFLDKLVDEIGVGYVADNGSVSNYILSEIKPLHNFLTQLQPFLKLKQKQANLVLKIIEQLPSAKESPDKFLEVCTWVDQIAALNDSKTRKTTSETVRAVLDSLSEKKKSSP

T2: I-CreI combinatorial mutant NNSRK/ARR, P05725
T2 chain: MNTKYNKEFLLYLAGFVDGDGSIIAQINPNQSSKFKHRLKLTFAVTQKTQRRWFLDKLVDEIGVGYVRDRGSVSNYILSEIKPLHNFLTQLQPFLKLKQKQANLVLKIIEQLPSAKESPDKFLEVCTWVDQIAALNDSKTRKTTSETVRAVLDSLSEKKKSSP

T3: I-CreI combinatorial mutant NNSRK/ASR, P05725
T3 chain: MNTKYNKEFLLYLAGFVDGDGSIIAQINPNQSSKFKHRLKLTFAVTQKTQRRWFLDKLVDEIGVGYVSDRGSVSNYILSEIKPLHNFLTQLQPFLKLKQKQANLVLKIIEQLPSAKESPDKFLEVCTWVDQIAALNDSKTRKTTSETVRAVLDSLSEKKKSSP


What was measured:
[1] = target: T1, I-CreI Q44, A68, N70, N75, P05725
[2] = target: the molecule itself; assay: far-UV CD, 1H-NMR and analytical ultracentrifugation of purified protein; self-association (homodimer)
Protocol: Novel I-CreI variants were expressed, purified, and analyzed for in vitro cleavage as reported previously (Arnould et al., precited). Circular dichroism (CD) measurements were performed on a Jasco J-810 spectropolarimeter using a 0.2 cm path length quartz cuvette. Equilibrium unfolding was induced increasing temperature at a rate of 1° C./min (using a programmable Peltier thermoelectric). Samples were prepared by dialysis against 25 mM potassium phosphate buffer, pH 7.5, at protein concentrations of 20 μM.
Finally, analysis of the structure and stability of this group of combinatorial mutants was performed using far-UV CD (FIG. 19d), ¹H-NMR and analytical ultracentrifugation. […] Thus, the two sets of residues that were mutated, K28, N30, Y33, Q38 and S40 on one hand, Q44, R68 and R70 on the other, define two relatively independent DNA binding sub-domains.

[3] = target: T2, I-CreI combinatorial mutant NNSRK/ARR, …
[4] = target: T3, I-CreI combinatorial mutant NNSRK/ASR, …

Protein | binding result [2] | also measured
I-CreI K44, T68, G70, N75 (protein) MNTKYNKEFLLYLAGFVDGDGSIIAQIKPNQSYKFKHQLSLTFKVTQKTQRRWFLDKLVDEIGVGYVTDGGSVSNYILSEIKPLHNFLTQLQPFLKLKQKQANLVLKIIEQLPSAKESPDKFLEVCTWVDQIAALNDSKTRKTTSETVRAVLDSLSEKKKSSP |  | cleavage of chimeric DNA targets gtt/gcc and gtt/cct (yeast LacZ recombination assay, co-expression) [1]: co-expression of the K44, T68, G70, N75 (KTG) and Q44, A68, N70, N75 (QAN) mutants resulted in the cleavage of two chimeric targets, gtt/gcc and gtt/cct, that were not cleaved by either mutant alone
I-CreI combinatorial mutant KNHQS/KEG (enzyme, UniProt P05725 1-163, looked up, The scaffold ORF has three additional C-terminal codons (AAD)) MNTKYNKEFLLYLAGFVDGDGSIIAQIKPNQSHKFKHQLSLTFKVTQKTQRRWFLDKLVDEIGVGYVEDGGSVSNYILSEIKPLHNFLTQLQPFLKLKQKQANLVLKIIEQLPSAKESPDKFLEVCTWVDQIAALNDSKTRKTTSETVRAVLDSLSEKKKSSP | binds | cleavage of the chimeric site COMB1 (yeast LacZ recombination assay, co-expression) [3]: co-expression resulted in cleavage of the chimeric sequence COMB1 among all tested heterodimers (KNHQS/KEG×NNSRK/ARR named as the example with the higher level of activity)
I-CreI combinatorial mutant NNSRK/ASR (enzyme, UniProt P05725 1-163, looked up, The scaffold ORF has three additional C-terminal codons (AAD)) MNTKYNKEFLLYLAGFVDGDGSIIAQINPNQSSKFKHRLKLTFAVTQKTQRRWFLDKLVDEIGVGYVSDRGSVSNYILSEIKPLHNFLTQLQPFLKLKQKQANLVLKIIEQLPSAKESPDKFLEVCTWVDQIAALNDSKTRKTTSETVRAVLDSLSEKKKSSP | binds | 
I-CreI combinatorial mutant KNHQS/KAS (enzyme, UniProt P05725 1-163, looked up, The scaffold ORF has three additional C-terminal codons (AAD)) MNTKYNKEFLLYLAGFVDGDGSIIAQIKPNQSHKFKHQLSLTFKVTQKTQRRWFLDKLVDEIGVGYVADSGSVSNYILSEIKPLHNFLTQLQPFLKLKQKQANLVLKIIEQLPSAKESPDKFLEVCTWVDQIAALNDSKTRKTTSETVRAVLDSLSEKKKSSP | binds | in vitro cleavage of the COMB1 target by purified proteins incubated together [3]: Cleavage of the COMB1 target was also detected in vitro when the KNHQS/KAS and NNSRK/ARR purified proteins were incubated together with the COMB1 target in our conditions, while incubation of single protein did not give rise to any detectable cleavage activity. However, the cleavage efficiency was e
I-CreI combinatorial mutant NNSRK/ARR (enzyme, UniProt P05725 1-163, looked up, The scaffold ORF has three additional C-terminal codons (AAD)) MNTKYNKEFLLYLAGFVDGDGSIIAQINPNQSSKFKHRLKLTFAVTQKTQRRWFLDKLVDEIGVGYVRDRGSVSNYILSEIKPLHNFLTQLQPFLKLKQKQANLVLKIIEQLPSAKESPDKFLEVCTWVDQIAALNDSKTRKTTSETVRAVLDSLSEKKKSSP | binds | 
I-CreI combinatorial mutant QNRQR/KEG (protein) MNTKYNKEFLLYLAGFVDGDGSIIAQIQPNQSRKFKHQLRLTFKVTQKTQRRWFLDKLVDEIGVGYVEDGGSVSNYILSEIKPLHNFLTQLQPFLKLKQKQANLVLKIIEQLPSAKESPDKFLEVCTWVDQIAALNDSKTRKTTSETVRAVLDSLSEKKKSSP |  | cleavage of the chimeric site COMB1 (yeast LacZ recombination assay, co-expression) [4]: co-expression resulted in cleavage of the chimeric sequence COMB1 among all tested heterodimers (QNRQR/KEG×NNSRK/ASR named as the example with the weaker activity)
